Earlier results in patent publication US9173901B2, “Compositions and methods of using lamellar bodies for modifying linear biological macromolecules” (LAMELLAR THERAPEUTICS LIMITED, priority 2004, dated 2015).

Tested on: CF patients
Conditions: young patients with mild lung disease; six months course

B1: rhDNAse: recombinant human DNAse, marketed for thinning CF secretions (protein, UniProt P24855 23-282, looked up)
Deoxyribonuclease-1: LKIAAFNIQTFGETKMSNATLVSYIVQILSRYDIALVQEVRDSHLTAVGKLLDNLNQDAPDTYHYVVSEPLGRNSYKERYLFVYRPDQVSAVDSYYYDDGCEPCGNDTFNREPAIVRFFSRFTEVREFAIVPLHAAPGDAVAEIDALYDVYLDVQEKWGLEDVMLMGDFNAGCSYVRPSQWSSIRLWTSPTFQWLIPDSADTTATPTHCAYDRIVVAGMLLRGAVVPDSALPFNFQAAYGLSDQLAQAISDHYPVEVMLK
benefit in FEVI: 3% | decrease in frequency of intravenous antibiotic courses: 34%
